Measurements taken from the supplement of paper PMC10567573.

B1: EMD (parent)
chain: YQSKGYNDDYYEESYFTTRTYGEP
B2: S100A14 (parent)
chain: KIANLGSCNDSKLEFRSFWELIGE

Variants of: B1
Assay: protein stability index of a GFP-peptide fusion (GPS, HEK-293T) (PSI 1-6); higher = more stable
Details: c terminus: a fixed tail appended
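Further: lentivirally expressed fusions sorted by FACS into six bins by GFP to DsRed ratio, PSI derived from sequencing read proportions per bin multiplied by bin number.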

Protein stability index: each site, then its substitutions
G22: E 2.76 | F 1.77 | H 2.13 | I 2.13 | K 2.85 | L 2.01 | M 1.96 | N 2.46 | P 2.27 | Q 2.25 | R 2.28 | S 2.07 | T 2.49 | V 2.02 | W 1.93 | Y 1.49
E23: A 1.7 | C 2.12 | D 2.28 | F 1.51 | G 2 | H 2.19 | I 1.92 | K 2.09 | L 2.18 | M 1.55 | N 2.42 | P 2.44 | Q 1.94 | R 1.91 | S 2.12 | T 2.24 | V 2.48 | W 2.35 | Y 1.99
P24: A 2.28 | C 2.48 | D 2.89 | E 2.12 | F 1.57 | G 2.51 | H 1.97 | I 1.86 | K 2.58 | L 2.1 | M 2.28 | N 2.15 | Q 2.52 | R 2.05 | S 2.29 | T 1.91 | V 1.85 | W 1.74 | Y 1.83

Variants of: B2
Assay: as above
Details: c terminus: a fixed tail appended

Protein stability index, by site and new letter:
K1: A 1.98 | C 1.92 | D 1.86 | E 1.84 | F 2.99 | G 2.04 | H 1.61 | I 1.79 | L 1.15 | M 1.59 | N 1.41 | P 1.95 | Q 2.02 | R 1.59 | S 2.19 | T 2.13 | W 3.31
I2: A 1.77 | C 1.22 | D 1.61 | E 1.77 | F 1.55 | G 2 | H 2.31 | K 1.54 | L 1.8 | M 1.99 | N 1.6 | P 2.12 | Q 1.32 | R 2.13 | S 2.9 | T 2 | V 1.88 | W 1.88 | Y 1.57
A3: C 1.62 | D 1.97 | E 1.95 | F 3.12 | G 2.48 | H 2.38 | I 1.74 | K 1.53 | L 1.09 | M 2.69 | N 1.54 | P 1.23 | Q 1.98 | R 1.33 | S 1.66 | T 1.65 | V 2.78 | W 2.28 | Y 1.79
N4: A 2.01 | C 1.75 | D 1.73 | E 1.68 | F 2.7 | G 2.83 | H 2.71 | I 1.9 | K 3.15 | L 1.67 | M 1.64 | P 1.83 | Q 1.72 | R 1.07 | S 2 | T 1.7 | V 1.98 | W 2.55 | Y 2.32
L5: A 1.89 | C 2.27 | D 2.67 | E 2.74 | F 2.03 | G 1.72 | H 1.88 | I 1.41 | K 2.89 | M 1.85 | N 2.44 | P 2.08 | Q 2.17 | R 2.25 | S 2.29 | T 1.62 | V 2.09 | Y 1.53
G6: A 2.11 | C 2.45 | D 1.61 | E 2.06 | H 1.5 | I 1.75 | K 3.01 | L 3.46 | M 2.51 | N 2.94 | P 1.67 | Q 1.95 | R 1.92 | S 2.1 | T 1.63 | V 2.51 | W 2.21 | Y 1.85
S7: A 1.51 | C 2.09 | D 1.96
